experiment: soluble on expression in E. coli; label from the status in PepcDB or PDB records

Sequence	soluble on expression in E. coli
HHHHHHGHMRTNKDRLVRISVVGEIAPAKMRSPYSVTTEGTVRVIPVLGGITYNVKVGDSAYGWAGDHVEPGVSVMARRKEEEIPLMTLSCIGNEVIVMSGDAKGSRGFVTGKHGGVNHVLVHFEEEVLGKLMVGDKILIKAWGQGLKLLDHPDVKVMNIDPDLFEKLGIQEKNGKIHVPVVAKIPAHMMGSGIGASSSASTDYDIMASNPEDLGVADLKLGDIVAIQDHDNSYGVGKYRKGAVSIGVVVHSACVSAGHGPGVVVIMTGDESKILPEEVERANISDYLVR	soluble
MGSDKIHHHHHHMPDGNQSLTVTVLSAIAEIGAEEWDGCAGSHNPFIRHAFLLAMEHSGSATAQTGWTPRHLAVRDAEGRLLAAAPLYLKSHSFGEYVFDWSWAQAYERAGGRYYPKLQCAVPFTPVTGPRLLVRPGEDGPRLRRVLAASMVDLARRLGASSVHVTFPSGQEYEGLGEVGYLQRLGSQYHWSNQGYQSFDDFLGQLSSRKRKQIRKERDAVARSGVRITTLVGTEVKSRHWDVFHAFYESVVDRKWGRAYVNRAFFEELSASNLAEAVVLVWAEDDGEPLGAAFNMLGKDTLYGRTWGGGRHVDFLHFEACYYRALDFAIAHGLARVEAGAQGEHKVSRGYLPTPTYSAHWIADAALAEPVARYLAHERAQVAEDMADQTEEGPFRKA	not soluble
QVQSVEVMRDSYGVPHVFADSHYGLYYGYGYAVAQDRLFQMDMARRSFVGTTAAVLGPGEQDAYVKYDMQVRQNFTPASIQRQIAALSKDERDIFRGYADGYNAYLEQVRRRPELLPKEYVDFDFQPEPLTDFDVVMIWVGSMANRFSDTNLEVTALAMRQSLEKQHGPERGRALFDELLWINDTTAPTTVPAPAA	soluble
MGSDKIHHHHHHMVAQIQELDALHWVKTRSSLDPNQSTFLTWTGKIYAFIPGEKRKLLFKMVGVSVSRCLPTDEGNWDFTSRELTYYLNPENDEILRKWENPWTGETVPVLHVANNPVQGHFQGKFPAQVEGETTTFVFDIFPTYPNPLAEETQFAEYSPYPTYQAAELFKLTVPTADLFNAELPAVSQLRLSWDRIGQWLPWMKMGDRPGNLIYSAFGSKVNGLTELPHILQEEINTRVPLYKQAPKTFSDGEDMTSWLYFQKHFQAYLAGDIFPLPADEEV	not soluble
MAHHHHHHMRVIIQRVKNAALSVIKEESKETEKQLELFSEIKNGIICFVGIHKNDTWKDAMYIIRKCLNLRLWSDGNKSWDKSVKDLNYEILFVSQFTLFANTKKGNKPDFHLAKEPKEALAMYNKMVEQFAKDYNHEKIKTGKFGCYMNIQVTNDGPVTIFIDSHDVNLDN	not soluble
MGSDKIHHHHHHMIPSQHFQSTPTVQFDLLTYMIGSYHYNWHPQIELLWLLQGTVEVNVDGTRHQLHANDLILINANRGHATFALTPECIALRLHILPDFYTNQGIDLSSGAFLLNSVTTPQHRDYQTIRQILAQLYLGLHQQDWPIFDLNALYFQLTNLLHHDFFDTGITMTYPQPKTQSSLNRVIDYINQAYDRPITLNEAAKISHYSPAYLSRIFKAELGLNFYEYLTRCRLQHAIYDLENPTTRVADLALANGFQEVKSFNLMFKKHFGQTPSSYRQHLSHGQRPEYDQFKQPLTPTQTTIVQKQLNHWAQLTSTDQLSACESCMYKLHFQEYQALKQKIAQLKTLLNQ	not soluble
MSVSLVVIRLELAEHSPVPAGFGFSAAAGEMSDEEIKKTTLASAVACLEGKSPGEKVAIIHQHLGRREMTDVIIETMKSNPDELKTTVEERKSSEASPTAQRSKDHSKECINAAPDSPSKQLPDQISFFSGNPSVEIVHGIMHLYKTNKMTSLKEDVRRSAMLCILTVPAAMTSHDLMKFVAPFNEVIEQMKIIRDSTPNQYMVLIKFRAQADADSFYMTCNGRQFNSIEDDVCQLVYVERAEVLKSEDGASLPVMDLTELPKCTVCLERMDESVNGILTTLCNHSFHSQCLQRWDDTTCPVCRYCQTPEPVEENKCFECGVQENLWICLICGHIGCGRYVSRHAYKHFEETQHTYAMQLTNHRVWDYAGDNYVHRLVASKTDGKIVQYECEGDTCQEEKIDALQLEYSYLLTSQLESQRIYWENKIVRIEKDTAEEINNMKTKFKETIEKCDNLEHKLNDLLKEKQSVERKCTQLNTKVAKLTNELKEEQEMNKCLRANQVLLQNKLKEEERVLKETCDQKDLQITEIQEQLRDVMFYLETQQKINHLPAETRQEIQEGQINIAMASASSPASSGGSGKLPSRKGRSKRGK	soluble

Reference: the DeepSol protein solubility set
